Test results as given in US20250002610A1 (Genmab, published 2025).

Legend:
[1] = molecular target: T1, human DR4 (Death Receptor 4), cell surface expressed on human tumor cell lines (human, UniProt O00220 24-468); test: flow cytometry, A549 cells, n = 3
T1 construct: also called TNFRSF10A; TRAIL-R1
T1 sequence: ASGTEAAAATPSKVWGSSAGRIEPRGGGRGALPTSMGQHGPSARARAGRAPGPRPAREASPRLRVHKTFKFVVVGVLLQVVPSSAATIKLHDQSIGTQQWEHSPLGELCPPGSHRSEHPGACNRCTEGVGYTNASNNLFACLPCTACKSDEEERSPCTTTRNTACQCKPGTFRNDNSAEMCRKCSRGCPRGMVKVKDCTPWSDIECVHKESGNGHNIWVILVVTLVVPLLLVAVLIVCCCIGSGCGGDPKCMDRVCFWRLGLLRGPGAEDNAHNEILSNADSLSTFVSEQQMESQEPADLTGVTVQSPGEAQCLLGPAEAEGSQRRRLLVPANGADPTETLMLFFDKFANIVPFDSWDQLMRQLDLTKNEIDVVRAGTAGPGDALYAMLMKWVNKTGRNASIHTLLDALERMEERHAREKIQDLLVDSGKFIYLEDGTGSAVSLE

[2] = molecular target: T1, human DR4 (Death Receptor 4), cell …; test: flow cytometry, DLD-1 cells, n = 1
[3] = molecular target: T1, human DR4 (Death Receptor 4), cell …; test: flow cytometry, HCT-116 cells, n = 1
[4] = molecular target: T1, human DR4 (Death Receptor 4), cell …; test: flow cytometry, MDA-MB-231 cells, average ± SEM
[5] = molecular target: T2, mouse FAPα on Expi293F cells (mouse (Mus musculus), UniProt P97321 1-761); test: flow cytometry on Expi293F cells transiently expressing mouse FAPα, gMFI PE
T2 sequence: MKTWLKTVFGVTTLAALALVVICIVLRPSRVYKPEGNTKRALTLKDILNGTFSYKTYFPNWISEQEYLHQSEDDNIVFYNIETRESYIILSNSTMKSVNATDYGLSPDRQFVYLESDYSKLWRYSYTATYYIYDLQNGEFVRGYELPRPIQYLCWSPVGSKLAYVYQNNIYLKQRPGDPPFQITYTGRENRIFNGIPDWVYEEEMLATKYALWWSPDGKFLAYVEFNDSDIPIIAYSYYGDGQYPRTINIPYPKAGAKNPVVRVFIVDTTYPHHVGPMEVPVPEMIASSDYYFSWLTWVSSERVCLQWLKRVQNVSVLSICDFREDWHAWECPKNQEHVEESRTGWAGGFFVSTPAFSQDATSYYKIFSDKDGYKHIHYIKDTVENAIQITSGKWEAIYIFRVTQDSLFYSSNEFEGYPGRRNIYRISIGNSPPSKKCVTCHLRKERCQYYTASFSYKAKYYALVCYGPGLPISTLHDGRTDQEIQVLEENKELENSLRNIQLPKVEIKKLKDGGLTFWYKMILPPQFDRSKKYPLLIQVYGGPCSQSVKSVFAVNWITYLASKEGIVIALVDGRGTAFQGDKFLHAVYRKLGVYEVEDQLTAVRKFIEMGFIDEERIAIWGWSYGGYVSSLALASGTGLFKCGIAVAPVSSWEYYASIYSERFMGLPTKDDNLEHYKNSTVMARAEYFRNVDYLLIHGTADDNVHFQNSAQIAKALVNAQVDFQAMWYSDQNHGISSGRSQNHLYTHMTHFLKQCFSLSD
Procedure: Binding of BisG1-FAPα-FERL/DR4-FERR, BisG1-FAPα-FEAL/b12-FEAR and IgG1-FAPα-FERL to FAPα of species commonly used for nonclinical toxicology studies was assessed by flow cytometry using Expi293F cells transiently expressing FAPα from different animal species. IgG1-b12 was included as negative control.
Expi293F cells expressing recombinant FAPα from various species (human, cynomolgus monkey, dog, pig, rat or mouse) were seeded (20,000 cells/well) in 96-Well round bottom plates (Greiner Bio-one, Cat #650101). Antibody dilutions were prepared using FACS buffer, consisting of PBS (Capricorn Scientific, Cat #PBS-10XA, diluted to 1×PBS in distilled water)+1% BSA (Roche, Cat #10735086001)+0.02% Sodium Azide (Bio-World, Cat #41920044-3). Plates were centrifuged, supernatant was removed, and cells were resuspended in 100 μL of antibody dilutions (concentration range 30-0.00017 μg/mL with three-fold serial dilutions using FACS buffer) of BisG1-FAPα-FERL/DR4-FERR, BisG1-FAPα-FEAL/b12-FEAR, IgG1-FAPα-FERL and IgG1-b12 and incubated for 30 min at 4° C. […] After 30 min incubation at 4° C., cells were washed with FACS buffer and resuspended in FACS buffer supplemented with TO-PRO-3 Iodide viability marker (Invitrogen, Cat #T3605, diluted 1:4,000). Antibody binding to viable cells (gMFI of PE on TO-PRO-3 negative cells) was analyzed by flow cytometry on a FACS Celesta and FACS_Diva software (first two experiments) or iQue® 3 and FlowJo software (last experiment). gMFI was determined and visualized using GraphPad Prism. Binding curves were analyzed using nonlinear regression analysis. The concentration (pg/mL) at which 50% of the maximal effect was observed (EC₅₀) was derived from the fitted curves.

binding result [5]: binds
B1: BisG1-FAPα-FERL/DR4-FERR (bispecific antibody, human IgG1, kappa, lambda)
heavy 1: EVQLLESGGGLVQPGGSPRLSCEASGFTFSSYALSWVRQAPGKGLEWVSAISGSGGGRYYADSVKGRFTISRDNSKNTLFLQMNSLRAEDTAVYYCAKEGYSSSGTYWDHWGQGTLVTVSSASTKGPSVFPLAPSSKSTSGGTAALGCLVKDYFPEPVTVSWNSGALTSGVHTFPAVLQSSGLYSLSSVVTVPSSSLGTQTYICNVNHKPSNTKVDKRVEPKSCDKTHTCPPCPAPEFERGPSVFLFPPKPKDTLMISRTPEVTCVVVDVSHEDPEVKFNWYVDGVEVHNAKTKPREEQYNSTYRVVSVLTVLHQDWLNGKEYKCKVSNKALPAPIEKTISKAKGQPREPQVYTLPPSREEMTKNQVSLTCLVKGFYPSDIAVEWESNGQPENNYKTTPPVLDSDGSFLLYSKLTVDKSRWQQGNVFSCSVMHEALHNHYTQKSLSLSPG
light 1: AIQMTQSPSSVSASVGDRVTITCRASQGVSSWLAWYQQKPGRAPKLLIYVASTLQSGVPSRFSGSGSGTDFTLTINSLQPEDFATYYCQQANSFPPTFGQGTRLEMKRTVAAPSVFIFPPSDEQLKSGTASVVCLLNNFYPREAKVQWKVDNALQSGNSQESVTEQDSKDSTYSLSSTLTLSKADYEKHKVYACEVTHQGLSSPVTKSFNRGEC
heavy 2: QVQLQESGPGLVKPSGTLSLTCAVSGGSISSYSWWSWIRQPPGKGLEWIGELYHSGSTNYNPSLKSRVTISVDKSKNQFSLKLRSVTAADTAVYYCVRGVATIDYWGQGTLVTVSSASTKGPSVFPLAPSSKSTSGGTAALGCLVKDYFPEPVTVSWNSGALTSGVHTFPAVLQSSGLYSLSSVVTVPSSSLGTQTYICNVNHKPSNTKVDKRVEPKSCDKTHTCPPCPAPEFERGPSVFLFPPKPKDTLMISRTPEVTCVVVDVSHEDPEVKFNWYVDGVEVHNAKTKPREEQYNSTYRVVSVLTVLHQDWLNGKEYKCKVSNKALPAPIEKTISKAKGQPREPQVYTLPPSREEMTKNQVSLTCLVKGFYPSDIAVEWESNGQPENNYKTTPPVLDSDGSFFLYSRLTVDKSRWQQGNVFSCSVMHEALHNHYTQKSLSLSPG
light 2: QSALTQPPSASGSPGQSVTISCTGTSSDVGGYNFVSWYQQDPGKAPKLLIYEVTKRPSGVPDRFSGSKSGNTASLTVSGLQAEDEADYYCSSYAGSNNVMFGGGTKLTVLGQPKAAPSVTLFPPSSEELQANKATLVCLISDFYPGAVTVAWKADSSPVKAGVETTTPSKQSNNKYAASSYLSLTPEQWKSHRSYSCQVTHEGSTVEKTVAPTECS
notes: Human IgG1 bispecific made by controlled Fab-arm exchange of IgG1-FAPα-FERL and IgG1-DR4-FERR; monovalent for FAPα and for DR4; also called GEN1057
EC50 [1]: 0.87 µg/mL
EC50 [2]: 0.75 µg/mL
EC50 [3]: 0.48 µg/mL
EC50 [4]: 1.18 µg/mL
